Square brackets hold non-standard residues; d marks the D form. Ends that are not written are not given here. pT = C[C@@H](OP(=O)(O)O)[C@H](N)C(=O)O
Assays:
HLA-A*02:01 = HLA-A*02:01 (Homo sapiens, UniProt P04439, D140Y/D185E/D98H/E176V/E277Q/G131W/G231S/I119V/I121R/I166T/I218V/L300P/L318F/N151K/N90K/P208A/P217A/Q86G/Q94H/R138H/R169H/T345S); assay: MHC binding assay: UV-ligand exchange with β2m ELISA; conditions: binding to HLA-A*02:01, UV-ligand exchange
Excerpt: Candidate peptides for T cell based therapies according to the present invention were further tested for their MHC binding capacity (affinity). The individual peptide-MHC complexes were produced by UV-ligand exchange, where a UV-sensitive peptide is cleaved upon UV-irradiation, and exchanged with the peptide of interest as analyzed. Only peptide candidates that can effectively bind and stabilize the peptide-receptive MHC molecules prevent dissociation of the MHC complexes. To determine the yield of the exchange reaction, an ELISA was performed based on the detection of the light chain (β2m) of stabilized MHC complexes. The assay was performed as generally described in Rodenko et al. (Rodenko et al., 2006).
96 well MAXISorp plates (NUNC) were coated over night with 2 ug/ml streptavidin in PBS at room temperature, washed 4× and blocked for 1 h at 37° C. in 2% BSA containing blocking buffer. Refolded HLA-A*02:01/MLA-001 monomers served as standards, covering the range of 15-500 ng/ml. Peptide-MHC monomers of the UV-exchange reaction were diluted 100-fold in blocking buffer. Samples were incubated for 1 h at 37° C., washed four times, incubated with 2 ug/ml HRP conjugated anti-β2m for 1 h at 37° C., washed again and detected with TMB solution that is stopped with […]. Absorption was measured at 450 nm. Candidate peptides that show a high exchange yield (preferably higher than 50%, most preferred higher than 75%) are generally preferred for a generation and production of antibodies or fragments thereof, and/or T cell receptors or fragments thereof, as they show sufficient avidity to the MHC molecules and prevent dissociation of the MHC complexes.

[1] = tested on: CD8+ T cells of healthy HLA-A*02 donors; assay: In vitro T-cell priming (aAPC with pMHC and anti-CD28), pMHC multimer readout; type: cell-based, human; conditions: for Wells positive [%]: HLA-A*02 restricted peptides, positive wells and donors among evaluable, Table 10B
Excerpt: In order to obtain information regarding the immunogenicity of the TUMAPs of the present invention, the inventors performed investigations using an in vitro T-cell priming assay based on repeated stimulations of CD8+ T cells with artificial antigen presenting cells (aAPCs) loaded with peptide/MHC complexes and anti-CD28 antibody.
In order to perform in vitro stimulations by artificial antigen presenting cells loaded with peptide-MHC complex (pMHC) and anti-CD28 antibody, the inventors first isolated CD8+ T cells from fresh HLA-A*02 leukapheresis products via positive selection using CD8 microbeads (Miltenyi Biotec, Bergisch-Gladbach, Germany) of healthy donors obtained from the University clinics Mannheim, Germany, after informed consent.
PBMCs and isolated CD8+ lymphocytes were incubated in T-cell medium (TCM) until use consisting of RPMI-Glutamax (Invitrogen, Karlsruhe, Germany) supplemented with 10% heat inactivated human AB serum (PAN-Biotech, Aidenbach, Germany), 100 U/ml Penicillin/100 μg/ml Streptomycin (Cambrex, Cologne, Germany), 1 mM sodium pyruvate (CC Pro, Oberdorla, Germany), 20 μg/ml Gentamycin (Cambrex). 2.5 ng/ml IL-7 (PromoCell, Heidelberg, Germany) and 10 U/ml IL-2 (Novartis Pharma, Nümberg, Germany) were also added to the TCM at this step.
Generation of pMHC/anti-CD28 coated beads, T-cell stimulations and readout was performed in a highly defined in vitro system using four different pMHC molecules per stimulation condition and 8 different pMHC molecules per readout condition.
The purified co-stimulatory mouse IgG2a anti human CD28 Ab 9.3 (Jung et al., 1987) was chemically biotinylated using Sulfo-N-hydroxysuccinimidobiotin as recommended by the manufacturer (Perbio, Bonn, Germany). Beads used were 5.6 μm diameter streptavidin coated polystyrene particles (Bangs Laboratories, Illinois, USA).
800.000 beads/200 μl were coated in 96-well plates in the presence of 4×12.5 ng different biotin-pMHC, washed and 600 ng biotin anti-CD28 were added subsequently in a volume of 200 μl. Stimulations were initiated in 96-well plates by co-incubating 1×10^6 CD8+ T cells with 2×10^5 washed coated beads in 200 μl TCM supplemented with 5 ng/ml IL-12 (PromoCell) for 3 days at 37° C. Half of the medium was then exchanged by fresh TCM supplemented with 80 U/ml IL-2 and incubating was continued for 4 days at 37° C. This stimulation cycle was performed for a total of three times. For the pMHC multimer readout using 8 different pMHC molecules per condition, a two-dimensional combinatorial coding approach was used as previously described (Andersen et al., 2012) with minor modifications encompassing coupling to 5 different fluorochromes. Finally, multimeric analyses were performed by staining the cells with Live/dead near IR dye (Invitrogen, Karlsruhe, Germany), CD8-FITC antibody clone SK1 (BD, Heidelberg, Germany) and fluorescent pMHC multimers. For analysis, a BD LSRII SORP cytometer equipped with appropriate lasers and filters was used. Peptide specific cells were calculated as percentage of total CD8+ cells. Evaluation of multimeric analysis was done using the FlowJo software (Tree Star, Oregon, USA). In vitro priming of specific multimer+CD8+ lymphocytes was detected by comparing to negative control stimulations.

ALAGSSPQV (listed as Homo sapiens) [SEQ ID NO: 2, HLA-A*02 peptide, source gene CNTD2]
Peptide Exchange (peptide exchange yield) (HLA-A*02:01): “+++” (≥50 = +++)
Wells positive [%] [1]: “++” (20%-49% = ++)

GLLGFQAEA (listed as Homo sapiens) [SEQ ID NO: 24, HLA-A*02 peptide, source gene MAGED1]
Peptide Exchange (peptide exchange yield) (HLA-A*02:01): “++++” (≥75% = ++++)
Wells positive [%] [1]: “++” (20%-49% = ++)

KMPEHISTV (listed as Homo sapiens) [SEQ ID NO: 1, HLA-A*02 peptide, source gene CILP]
Peptide Exchange (peptide exchange yield) (HLA-A*02:01): “+++” (≥50 = +++)
Wells positive [%] [1]: “+” (<20% = +)

LLMUVAGLKL (LLM[pT]VAGLKL; listed as Homo sapiens) [SEQ ID NO: 38, HLA-A*02 peptide, source gene PCNXL3; U = phospho-threonine]
Peptide Exchange (peptide exchange yield) (HLA-A*02:01): “++++” (≥75% = ++++)

SLADAVEKV (listed as Homo sapiens) [SEQ ID NO: 23, HLA-A*02 peptide, source gene CCDC122]
Peptide Exchange (peptide exchange yield) (HLA-A*02:01): “+++” (≥50 = +++)
Wells positive [%] [1]: “+++” (50%-69% = +++)

SLAEPRVSV (listed as Homo sapiens) [SEQ ID NO: 27, HLA-A*02 peptide, source gene FASN]
Peptide Exchange (peptide exchange yield) (HLA-A*02:01): “+++” (≥50 = +++)

SLAWDVPAA (listed as Homo sapiens) [SEQ ID NO: 26, HLA-A*02 peptide, source gene FASN]
Peptide Exchange (peptide exchange yield) (HLA-A*02:01): “+++” (≥50 = +++)

SLFPSLVVV (listed as Homo sapiens) [SEQ ID NO: 15, HLA-A*02 peptide, source gene PLEC]
Peptide Exchange (peptide exchange yield) (HLA-A*02:01): “+++” (≥50 = +++)

SLFSVPFFL (listed as Homo sapiens) [SEQ ID NO: 28, HLA-A*02 peptide, source gene TM9SF1]
Peptide Exchange (peptide exchange yield) (HLA-A*02:01): “++++” (≥75% = ++++)

SLLSEIQAL (listed as Homo sapiens) [SEQ ID NO: 35, HLA-A*02 peptide, source genes AKAP9, PCNT]
Peptide Exchange (peptide exchange yield) (HLA-A*02:01): “++++” (≥75% = ++++)

SLLTEPALV (listed as Homo sapiens) [SEQ ID NO: 21, HLA-A*02 peptide, source gene TBC1D9]
Peptide Exchange (peptide exchange yield) (HLA-A*02:01): “+++” (≥50 = +++)
Wells positive [%] [1]: “++” (20%-49% = ++)

SLNDQGYLL (listed as Homo sapiens) [SEQ ID NO: 41, HLA-A*02 peptide, source gene MCM8]
Peptide Exchange (peptide exchange yield) (HLA-A*02:01): “+++” (≥50 = +++)

SLVEGEAVHLA (listed as Homo sapiens) [SEQ ID NO: 4, HLA-A*02 peptide, source genes TFAP2E, TFAP2A, TFAP2B, TFAP2C]
Peptide Exchange (peptide exchange yield) (HLA-A*02:01): “++” (≥20% = ++)

SMMGLLTNL (listed as Homo sapiens) [SEQ ID NO: 16, HLA-A*02 peptide, source gene ESR1]
Peptide Exchange (peptide exchange yield) (HLA-A*02:01): “++++” (≥75% = ++++)

TIASSIEKA (listed as Homo sapiens) [SEQ ID NO: 17, HLA-A*02 peptide, source gene STPG2]
Peptide Exchange (peptide exchange yield) (HLA-A*02:01): “++” (≥20% = ++)

TLLGLAVNV (listed as Homo sapiens) [SEQ ID NO: 36, HLA-A*02 peptide, source gene CHPT1]
Peptide Exchange (peptide exchange yield) (HLA-A*02:01): “++++” (≥75% = ++++)

TLSSIKVEV (listed as Homo sapiens) [SEQ ID NO: 50, peptide useful for personalized cancer therapies, source gene MXRA5]
wells (in vitro immunogenicity, positive wells) ([1]; HLA class I peptides, Table 10A): + (<20% = +)

YIDGLESRV (listed as Homo sapiens) [SEQ ID NO: 22, HLA-A*02 peptide, source gene CREB3L4]
Peptide Exchange (peptide exchange yield) (HLA-A*02:01): “+++” (≥50 = +++)
Wells positive [%] [1]: “+” (<20% = +)

YILLQSPQL (listed as Homo sapiens) [SEQ ID NO: 18, HLA-A*02 peptide, source gene MUC6]
Peptide Exchange (peptide exchange yield) (HLA-A*02:01): “++++” (≥75% = ++++)
